This note sets out measurements from patent US20170088585A1.

The target of the assay is Aβ40 (UniProt P05067). Kind of assay: cell-based or functional assay.
Sequence of Aβ40 (P05067 672-711 limits assumed): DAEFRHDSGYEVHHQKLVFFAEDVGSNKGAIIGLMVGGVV

Usually Inhibition stands for the relative decrease from the control value, in per cent. Higher therefore signals strong suppression. With “[lJwHsK]: Cyclo-D-leucine-L-noreucine-D-tryptophan-L-histidine-D-serine-L-lysine (peptide)”, the Inhibition at 1:1 (ThT assay, Aβ:cyclic peptide) worked out at 69% and the Inhibition at 1:1/3 (ThT assay, Aβ:cyclic peptide) came to 37%.
In the same order, the values of “[lZwHsK]: Cyclo-D-leucine-L-2-aminooctanoic acid-D-tryptophan-L-histidine-D-serine-L-lysine (peptide)” are 55% and 42%.
